Data from the supplement of paper PMC5998384.

Experiments:
HeLa Kyoto [1] = test: solubility in G1/S (NP-40 vs SDS abundance) (log2 ratio); higher = more soluble; settings: cell cycle stage: G1/S
HeLa Kyoto [2] = test: melting temperature (median over replicates), in situ; higher = more thermally stable
HeLa Kyoto [3] = test: solubility change mitosis vs G1/S (difference of NP-40 vs SDS log2 ratios) (log2 ratio difference); higher = more soluble in mitosis
HeLa Kyoto [4] = test: thermal stability score vs G1/S (z-score of summed log2 fold changes over temperatures); higher = more thermally stable than in G1/S
[5] = cell cycle stage: early G1 (4.5 h after nocodazole release)
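Wherever melting temperature (median over replicates), in situ is given: HeLa Kyoto cells synchronized by double thymidine or nocodazole block, proteins quantified by TMT10plex mass spectrometry, three independent biological replicates.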
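Wherever solubility change mitosis vs G1/S (difference of NP-40 vs SDS log2 ratios) is given: synchronized HeLa Kyoto cells (double thymidine block for G1/S, nocodazole release for mitosis), protein amounts in NP-40 versus SDS lysates quantified by mass spectrometry, three biological replicates.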
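Wherever solubility in G1/S (NP-40 vs SDS abundance) is given: HeLa Kyoto cells arrested at G1/S by double thymidine block, proteins quantified by TMT10plex mass spectrometry in mild NP-40 versus SDS extracts, three biological replicates.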
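Wherever thermal stability score vs G1/S (z-score of summed log2 fold changes over temperatures) is given: synchronized HeLa Kyoto cells, proteins quantified by TMT10plex mass spectrometry, three biological replicates, mitosis taken 0.5 h after nocodazole release, G1/S directly after double thymidine block.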

Row | Sequence | solubility in G1/S (log2) (HeLa Kyoto [1]) | melting temperature (HeLa Kyoto [2]; cell cycle stage: G1/S) | melting temperature (HeLa Kyoto [2]; cell cycle stage: mitosis) | solubility change mitosis (log2) (HeLa Kyoto [3]) | thermal stability score (HeLa Kyoto [4]; [5]) | thermal stability score (HeLa Kyoto [4]; cell cycle stage: mitosis)
1 | MSNIYIQEPPTNGKVLLKTTAGDIDIELWSKEAPKACRNFIQLCLEAYYDNTIFHRVVPGFIVQGGDPTGTGSGGESIYGAPFKDEFHSRLRFNRRGLVAMANAGSHDNGSQFFFTLGRADELNNKHTIFGKVTGDTVYNMLRLSEVDIDDDERPHNPHKIKSCEVLFNPFDDIIPREIKRLKKEKPEEEVKKLKPKGTKNFSLLSFGEEAEEEEEEVNRVSQSMKGKSKSSHDLLKDDPHLSSVPVVESEKGDAPDLVDDGEDESAEHDEYIDGDEKNLMRERIAKKLKKDTSANVKSAGEGEVEKKSVSRSEELRKEARQLKRELLAAKQKKVENAAKQAEKRSEEEEAPPDGAVAEYRREKQKYEALRKQQSKKGTSREDQTLALLNQFKSKLTQAIAETPENDIPETEVEDDEGWMSHVLQFEDKSRKVKDASMQDSDTFEIYDPRNPVNKRRREESKKLMREKKERR [CWC27] | 0.0954 | 47.3 °C | 49.8 °C | 0.0672 | 0.415 | 1.04
2 | MSNSRPRSRRDAGGGAGAAGRDELVSRSLQSAEHCLGVQDFGTAYAHYLLVLSLAPELKHDVKETFQYTLFRWAEELDALSRIQDLLGCYEQALELFPDDEVICNSMGEHLFRMGFRDEAAGYFHKAVKLNPDFSDAKENFYRVANWLVERWHFIMLNDTKRNTIYNAAIQKAVCLGSKSVLDIGAGTGILSMFAKKAGAHSVYACELSKTMYELACDVVAANKMEAGIKLLHTKSLDIEIPKHIPERVSLVVTETVDAGLFGEGIVESLIHAWEHLLLQPKTKGESANCEKYGKVIPASAVIFGMAVECAEIRRHHRVGIKDIAGIHLPTNVKFQSPAYSSVDTEETIEPYTTEKMSRVPGGYLALTECFEIMTVDFNNLQELKSLATKKPDKIGIPVIKEGILDAIMVWFVLQLDDEHSLSTSPSEETCWEQAVYPVQDLADYWIKPGDHVMMEVSCQDCYLRIQSISVLGLECEMDVAKSFTQNKDLLSLGNEAELCSALANLQTSKPDAVEQTCILESTEIALLNNIPYHEGFKMAMSKVLSSLTPEKLYQTMDTHCQNEMSSGTGQSNTVQNILEPFYVLDVSEGFSVLPVIAGTLGQVKPYSSVEKDQHRIALDLISEANHFPKETLEFWLRHVEDESAMLQRPKSDKLWSIIILDVIEPSGLIQQEIMEKAAISRCLLQSGGKIFPQYVLMFGLLVESQTLLEENAVQGTERTLGLNIAPFINQFQVPIRVFLDLSSLPCIPLSKPVELLRLDLMTPYLNTSNREVKVYVCKSGRLTAIPFWYHMYLDEEIRLDTSSEASHWKQAAVVLDNPIQVEMGEELVLSIQHHKSNVSITVKQ [PRMT9] | -0.21 | 50.8 °C | 51.1 °C | -0.0806 | 0.367 | 0.336
3 | MSPEEWTYLVVLLISIPIGFLFKKAGPGLKRWGAAAVGLGLTLFTCGPHTLHSLVTILGTWALIQAQPCSCHALALAWTFSYLLFFRALSLLGLPTPTPFTNAVQLLLTLKLVSLASEVQDLHLAQRKEMASGFSKGPTLGLLPDVPSLMETLSYSYCYVGIMTGPFFRYRTYLDWLEQPFPGAVPSLRPLLRRAWPAPLFGLLFLLSSHLFPLEAVREDAFYARPLPARLFYMIPVFFAFRMRFYVAWIAAECGCIAAGFGAYPVAAKARAGGGPTLQCPPPSSPEKAASLEYDYETIRNIDCYSTDFCVRVRDGMRYWNMTVQWWLAQYIYKSAPARSYVLRSAWTMLLSAYWHGLHPGYYLSFLTIPLCLAAEGRLESALRGRLSPGGQKAWDWVHWFLKMRAYDYMCMGFVLLSLADTLRYWASIYFCIHFLALAALGLGLALGGGSPSRRKAASQPTSLAPEKLREE [MBOAT7] | -0.091 | 56.9 °C | 57 °C | 0.0131 | -1.37 | -1.09
4 | MSPRRTLPRPLSLCLSLCLCLCLAAALGSAQSGSCRDKKNCKVVFSQQELRKRLTPLQYHVTQEKGTESAFEGEYTHHKDPGIYKCVVCGTPLFKSETKFDSGSGWPSFHDVINSEAITFTDDFSYGMHRVETSCSQCGAHLGHIFDDGPRPTGKRYCINSAALSFTPADSSGTAEGGSGVASPAQADKAEL [MSRB3] | 0.116 | 55 °C | 53.6 °C | 0.0421 | -0.168 | -0.886
5 | MSQGDSNPAAIPHAAEDIQGDDRWMSQHNRFVLDCKDKEPDVLFVGDSMVQLMQQYEIWRELFSPLHALNFGIGGDTTRHVLWRLKNGELENIKPKVIVVWVGTNNHENTAEEVAGGIEAIVQLINTRQPQAKIIVLGLLPRGEKPNPLRQKNAKVNQLLKVSLPKLANVQLLDTDGGFVHSDGAISCHDMFDFLHLTGGGYAKICKPLHELIMQLLEETPEEKQTTIA [PAFAH1B2] | 0.628 | 49.5 °C | 51 °C | -0.079 | -0.13 | -0.102
